Data as given in paper PMC6259326, “Study on Suitability of KOD DNA Polymerase for Enzymatic Production of Artificial Nucleic Acids Using Base/Sugar Modified Nucleoside Triphosphates” (Molecules, 2010).

Experiments:
[1] = substrate: NCCCCCCNC(=O)Cc1cn([C@@H]2O[C@H](COP(=O)(O)OP(=O)(O)OP(=O)(O)O)[C@@H](O)[C@@H]2O)c(=O)[nH]c1=O; assay: single nucleotide primer extension, 6-FAM primer, denaturing PAGE; format: biochemical, Thermococcus litoralis; conditions: apparent Km, 40 °C, primer P1 / template T1, correct insertion, 0.0125 U/μL enzyme
Source text: (§1) single nucleotide primer extension, 6-FAM primer, denaturing PAGE on Vent(exo-) DNA polymerase

[2] = substrate: NCCCCCCNC(=O)Cc1cn([C@H]2C[C@H](O)[C@@H](COP(=O)(O)OP(=O)(O)OP(=O)(O)O)O2)c(=O)[nH]c1=O; assay: as above; format: biochemical, Thermococcus litoralis; conditions: apparent Km, 40 °C, primer P1 / template T1, correct insertion, 0.0125 U/μL enzyme
Source text: as §1

[3] = substrate: Cc1cn([C@H]2C[C@H](O)[C@@H](COP(=O)(O)OP(=O)(O)OP(=O)(O)O)O2)c(=O)[nH]c1=O; assay: as above; format: biochemical, Thermococcus litoralis; conditions: apparent Km, 40 °C, primer P1 / template T1, correct insertion, 0.0125 U/μL enzyme
Source text: as §1

purified protein = substrate: Nc1ccn([C@H]2C[C@H](O)[C@@H](COP(=O)(O)OP(=O)(O)OP(=O)(O)O)O2)c(=O)n1; assay: purified protein; conditions: apparent Km, 40 °C, primer P1 / template T1, misinsertion, 0.0125 U/μL enzyme

B1: Vent(exo-) DNA polymerase (Thermococcus litoralis; D141A/E143A) (protein)
chain 1: MILDTDYITKDGKPIIRIFKKENGEFKIELDPHFQPYIYALLKDDSAIEEIKAIKGERHGKTVRVLDAVKVRKKFLGREVEVWKLIFEHPQDVPAMRGKIREHPAVVDIYEYDIPFAKRYLIDKGLIPMEGDEELKLLAFAIATFYHEGDEFGKGEIIMISYADEEEARVITWKNIDLPYVDVVSNEREMIKRFVQVVKEKDPDVIITYNGDNFDLPYLIKRAEKLGVRLVLGRDKEHPEPKIQRMGDSFAVEIKGRIHFDLFPVVRRTINLPTYTLEAVYEAVLGKTKSKLGAEEIAAIWETEESMKKLAQYSMEDARATYELGKEFFPMEAELAKLIGQSVWDVSRSSTGNLVEWYLLRVAYARNELAPNKPDEEEYKRRLRTTYLGGYVKEPEKGLWENIIYLDFRSLYPSIIVTHNVSPDTLEKEGCKNYDVAPIVGYRFCKDFPGFIPSILGDLIAMRQDIKKKMKSTIDPIEKKMLDYRQRAIKLLAN
chain 2: SYYGYMGYPKARWYSKECAESVTAWGRHYIEMTIREIEEKFGFKVLYAD
chain 3: TDGFYATIPGEKPELIKKKAKEFLNYINSKLPGLLELEYEGFYLRGFFVTKKRYAVIDEEGRITTRGLEVVRRDWSEIAKETQAKVLEAILKEGSVEKAVEVVRDVVEKIAKYRVPLEKLVIHEQITRDLKDYKAIGPHVAIAKRLAARGIKVKPGTIISYIVLKGSGKISDRVILLTEYDPRKHKYDPDYYIENQVLPAVLRILEAFGYRKEDLRYQSSKQTGLDAWLKR
notes: commercial exonuclease-deficient enzyme (New England Biolabs), mature intein-free form
With B1 the Km [1] was 4.4 µM, the kcat [1] was 0.000817 s⁻¹ and the Km [2] was 2.7 µM. The kcat [2] was 0.00483 s⁻¹, the Km [3] was 3 µM and the kcat [3] was 0.00567 s⁻¹. The Km (purified protein) was 1700 µM and the kcat (purified protein) was 0.00233 s⁻¹.
